Reference: patent publication US6600012 (BIOMIRA, dated 2003)

B1: SIINFEKL, 8-mer ovalbumin (OVA) peptide (peptide)
peptide: SIINFEKL
notes: It is the positive control for HLA.A2 upregulation and the negative control for killing

Key:
[1] = target: T1, HLA.A2 on T2 mutant cells; assay: T2 cell HLA.A2 upregulation assay, flow cytometry with MA2.1
T1 construct: MHC class I molecule on the T2 cell surface; also called HLA.A2.1; class I on T2 cells

[2] = target: T1, HLA.A2 on T2 mutant cells; assay: T2 cell HLA.A2 upregulation assay, flow cytometry

Binder	% Change in mean channel intensity [1] [%]	binding result [2]
VTSAPDTRP [VTSAPDTRP, MUC-1 tandem repeat synthetic 9 mer]	29	
TSAPDTRPA (also called TSA 9 mer; 9 mers TSA . .) [TSAPDTRPA, MUC-1 tandem repeat synthetic 9 mer]	256	
B1		binds
DTRPAPGST [DTRPAPGST, MUC-1 tandem repeat synthetic 9 mer]	52	
PDTRPAPGS [PDTRPAPGS, MUC-1 tandem repeat synthetic 9 mer]	3	
GVTSAPDTR [GVTSAPDTR, MUC-1 tandem repeat synthetic 9 mer]	12	
APDTRPAPG [APDTRPAPG, MUC-1 tandem repeat synthetic 9 mer]	66	
TSAPDTR (also called 7 mer TSA . . . peptide) [TSAPDTR, MUC-1 synthetic 7 mer]		no binding (tested: 50 µM/well)
